Experimental findings from publication PMC10397247 are described below.

The target in one assay is T1, 4H3354-bA.
T1 chain: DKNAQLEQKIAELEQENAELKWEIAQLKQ
Kind of assay: two-hybrid library CCNG1.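 Note: natural log of median RNA to DNA barcode read ratio; higher means stronger binding.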

The target of the next assay is T2, 4H338-bA.
T2 chain: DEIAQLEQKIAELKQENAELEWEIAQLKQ
Kind of assay: two-hybrid library CCNG1.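 Note: natural log of median RNA to DNA barcode read ratio; higher means stronger binding.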

The target in a further assay is T3, 4H3427-bA.
T3 chain: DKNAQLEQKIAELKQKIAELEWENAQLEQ
Kind of assay: two-hybrid library CCNG1.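 Note: natural log of median RNA to DNA barcode read ratio; higher means stronger binding.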

In the next assay the target is T4, 4H3782-bA.
T4 chain: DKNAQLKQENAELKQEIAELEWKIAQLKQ
Kind of assay: two-hybrid library CCNG1.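 Note: natural log of median RNA to DNA barcode read ratio; higher means stronger binding.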

The next assay deals with T5, 4H3855-bA.
T5 chain: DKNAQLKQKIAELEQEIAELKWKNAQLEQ
Kind of assay: two-hybrid library CCNG1.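 Note: natural log of median RNA to DNA barcode read ratio; higher means stronger binding.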

For a further assay, the target named is T6, 4H4001-bA.
T6 chain: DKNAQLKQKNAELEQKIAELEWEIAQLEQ
Kind of assay: two-hybrid library CCNG1.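 Note: natural log of median RNA to DNA barcode read ratio; higher means stronger binding.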

The target in a further assay is T7, 4H454-bA.
T7 chain: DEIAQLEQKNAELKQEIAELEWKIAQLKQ
Kind of assay: two-hybrid library CCNG1.

For a further assay, the target named is T8, 4H568-bA.
T8 chain: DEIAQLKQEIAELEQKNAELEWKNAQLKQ
Kind of assay: two-hybrid library CCNG1.

The target in a further assay is T9, 4H607-bA.
T9 chain: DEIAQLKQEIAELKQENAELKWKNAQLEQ
Kind of assay: two-hybrid library CCNG1.

The target in the next assay is T10, 4H687-bA.
T10 chain: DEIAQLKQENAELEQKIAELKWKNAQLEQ
Kind of assay: two-hybrid library CCNG1.

The target of the next assay is T11, 4H717-bA.
T11 chain: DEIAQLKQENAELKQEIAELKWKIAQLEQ
Kind of assay: two-hybrid library CCNG1.

The next assay has as its target T12, 4H72-bA.
T12 chain: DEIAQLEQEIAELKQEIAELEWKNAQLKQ
Kind of assay: two-hybrid library CCNG1.

The target of another assay is T13, 4H754-bA.
T13 chain: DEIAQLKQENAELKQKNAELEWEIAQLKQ
Kind of assay: two-hybrid library CCNG1.

The target in the next assay is T14, 4H797-bA.
T14 chain: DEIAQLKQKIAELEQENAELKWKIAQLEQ
Kind of assay: two-hybrid library CCNG1.

The target in a further assay is T15, 4H883-bA.
T15 chain: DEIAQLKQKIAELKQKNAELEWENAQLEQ
Kind of assay: two-hybrid library CCNG1.

For another assay, the target named is T16, 4H908-bA.
T16 chain: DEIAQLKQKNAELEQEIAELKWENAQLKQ
Kind of assay: two-hybrid library CCNG1.

Another assay concerns the target T17, 4H918-bA.
T17 chain: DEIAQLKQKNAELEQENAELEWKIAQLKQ
Kind of assay: two-hybrid library CCNG1.

A further assay addresses T18, 4H953-bA.
T18 chain: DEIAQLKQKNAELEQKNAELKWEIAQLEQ
Kind of assay: two-hybrid library CCNG1.

In the next assay the target is T19, 4H967-bA.
T19 chain: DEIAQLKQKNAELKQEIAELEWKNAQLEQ
Kind of assay: two-hybrid library CCNG1.

In a further assay the target is T20, P9A-bA.
T20 chain: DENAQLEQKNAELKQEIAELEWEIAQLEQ
Kind of assay: two-hybrid library CCNG1.

Another assay addresses T21, 4H3414-bH.
T21 chain: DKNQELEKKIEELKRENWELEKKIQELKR
Kind of assay: two-hybrid library CCNG1.

Another assay addresses T22, 4H3631-bH.
T22 chain: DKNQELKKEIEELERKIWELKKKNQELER
Kind of assay: two-hybrid library CCNG1.

A further assay addresses T23, 4H3638-bH.
T23 chain: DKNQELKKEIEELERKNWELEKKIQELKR
Kind of assay: two-hybrid library CCNG1.

In the next assay the target is T24, 4H3817-bH.
T24 chain: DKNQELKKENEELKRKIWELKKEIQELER
Kind of assay: two-hybrid library CCNG1.

In another assay the target is T25, 4H3974-bH.
T25 chain: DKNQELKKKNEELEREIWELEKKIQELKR
Kind of assay: two-hybrid library CCNG1.

In the next assay the target is T26, 4H570-bH.
T26 chain: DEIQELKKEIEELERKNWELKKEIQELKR
Kind of assay: two-hybrid library CCNG1.

The target of a further assay is T27, 4H584-bH.
T27 chain: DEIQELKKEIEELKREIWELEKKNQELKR
Kind of assay: two-hybrid library CCNG1.

A further assay concerns the target T28, 4H619-bH.
T28 chain: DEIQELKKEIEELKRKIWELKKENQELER
Kind of assay: two-hybrid library CCNG1.

In the next assay the target is T29, 4H683-bA.
T29 chain: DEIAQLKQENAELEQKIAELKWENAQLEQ
Kind of assay: two-hybrid library CCNG1.

The target of another assay is T30, 4H850-bH.
T30 chain: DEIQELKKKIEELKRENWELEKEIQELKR
Kind of assay: two-hybrid library CCNG1.

The target of another assay is T31, 4H906-bH.
T31 chain: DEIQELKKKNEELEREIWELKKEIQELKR
Kind of assay: two-hybrid library CCNG1.

In another assay the target is T32, 4H953-bH.
T32 chain: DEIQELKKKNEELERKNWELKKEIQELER
Kind of assay: two-hybrid library CCNG1.

A further assay has as its target T33, 4H3189-bH.
T33 chain: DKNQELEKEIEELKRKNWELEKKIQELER
Kind of assay: two-hybrid library CCNG1.

Another assay deals with T34, 4H331-bH.
T34 chain: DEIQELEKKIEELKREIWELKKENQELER
Kind of assay: two-hybrid library CCNG1.

For a further assay, the target named is T35, 4H3606-bH.
T35 chain: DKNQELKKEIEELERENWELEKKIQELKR
Kind of assay: two-hybrid library CCNG1.

The next assay deals with T36, 4H370-bH.
T36 chain: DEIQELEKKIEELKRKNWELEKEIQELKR
Kind of assay: two-hybrid library CCNG1.

In the next assay the target is T37, 4H3782-bH.
T37 chain: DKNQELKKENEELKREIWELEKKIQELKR
Kind of assay: two-hybrid library CCNG1.

For a further assay, the target named is T38, 4H3843-bH.
T38 chain: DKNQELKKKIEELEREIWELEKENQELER
Kind of assay: two-hybrid library CCNG1.

A further assay concerns the target T39, 4H4001-bH.
T39 chain: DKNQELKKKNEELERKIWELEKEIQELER
Kind of assay: two-hybrid library CCNG1.

The target of a further assay is T40, 4H462-bH.
T40 chain: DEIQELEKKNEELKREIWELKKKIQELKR
Kind of assay: two-hybrid library CCNG1.

A further assay concerns the target T41, 4H568-bH.
T41 chain: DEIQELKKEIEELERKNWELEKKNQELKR
Kind of assay: two-hybrid library CCNG1.

The target in another assay is T42, 4H607-bH.
T42 chain: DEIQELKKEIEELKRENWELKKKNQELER
Kind of assay: two-hybrid library CCNG1.

Another assay concerns the target T43, 4H687-bH.
T43 chain: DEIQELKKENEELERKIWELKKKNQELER
Kind of assay: two-hybrid library CCNG1.

For a further assay, the target named is T44, 4H72-bH.
T44 chain: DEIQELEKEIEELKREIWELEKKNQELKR
Kind of assay: two-hybrid library CCNG1.

For another assay, the target named is T45, 4H797-bH.
T45 chain: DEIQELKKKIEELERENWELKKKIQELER
Kind of assay: two-hybrid library CCNG1.

The target of a further assay is T46, 4H883-bH.
T46 chain: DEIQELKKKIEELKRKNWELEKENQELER
Kind of assay: two-hybrid library CCNG1.

The next assay addresses T47, 4H918-bH.
T47 chain: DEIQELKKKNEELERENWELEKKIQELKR
Kind of assay: two-hybrid library CCNG1.

In the next assay the target is T48, P5mS.
T48 chain: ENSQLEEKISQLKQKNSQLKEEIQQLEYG
Kind of assay: two-hybrid library CC1.

A further assay concerns the target T49, P6SC1.
T49 chain: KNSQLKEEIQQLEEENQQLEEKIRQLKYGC
Kind of assay: two-hybrid library CC1. Particulars: mean of both orientations.

The target of another assay is T50, P6SC2.
T50 chain: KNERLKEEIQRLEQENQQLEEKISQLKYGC
Kind of assay: two-hybrid library CC1. Particulars: mean of both orientations.

The next assay concerns the target T51, P6.
T51 chain: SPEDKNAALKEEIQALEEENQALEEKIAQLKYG
Kind of assay: two-hybrid library CC1. Particulars: mean of both orientations.

In a further assay the target is T52, P6mS.
T52 chain: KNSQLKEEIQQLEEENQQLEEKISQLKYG
Kind of assay: two-hybrid library CC1. The settings on record: mean of both orientations.

A further assay has as its target T53, P7.
T53 chain: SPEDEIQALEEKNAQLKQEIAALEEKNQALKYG
Kind of assay: two-hybrid library CC1. The settings on record: mean of both orientations.

A further assay has as its target T54, P7mS.
T54 chain: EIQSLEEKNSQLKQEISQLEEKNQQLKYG
Kind of assay: two-hybrid library CC1. Particulars: mean of both orientations.

Another assay has as its target T55, P8.
T55 chain: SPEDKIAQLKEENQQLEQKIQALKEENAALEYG
Kind of assay: two-hybrid library CC1. Particulars: mean of both orientations.

The target in the next assay is T56, P8mS.
T56 chain: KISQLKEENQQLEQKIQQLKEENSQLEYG
Kind of assay: two-hybrid library CC1. Particulars: mean of both orientations.

The target in the next assay is T57, P9.
T57 chain: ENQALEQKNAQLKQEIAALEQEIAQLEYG
Kind of assay: two-hybrid library CC1. The settings on record: mean of both orientations.

B1: 4H3354-bA (peptide)
chain: DKNAQLEQKIAELEQENAELKWEIAQLKQ
Consider B1, for which the interaction score with 4H3354-bA was 1.66; with 4H338-bA, 0.149; in the assay with 4H3427-bA, -0.0236; with 4H3782-bA, -0.851; in the assay with 4H3855-bA it was -0.492; with 4H4001-bA it was -0.362. The interaction score with 4H454-bA is -1.24; in the assay with 4H568-bA, -1.07; with 4H607-bA, -0.0475; with 4H687-bA it was 0.42; with 4H717-bA, -0.712; with 4H72-bA, -0.822. For the same molecule, the interaction score with 4H754-bA was -0.511; with 4H797-bA, -1.14; with 4H883-bA it was -0.0506; in the assay with 4H908-bA it was -1.17; in the assay with 4H918-bA it was -0.0912; with 4H953-bA, -0.675. In addition, the interaction score with 4H967-bA is -0.407; in the assay with P9A-bA it was -1.59.

B2: 4H3414-bH (peptide)
chain: DKNQELEKKIEELKRENWELEKKIQELKR
Take B2: the interaction score was 0.938 with 4H3414-bH; 0.689 in the assay with 4H3631-bH; -1.45 in the assay with 4H3638-bH; 0.48 with 4H3817-bH; 0.33 with 4H3974-bH; 0.846 in the assay with 4H570-bH. The interaction score was -0.695 with 4H584-bH; 0.721 with 4H619-bH; 0.0371 in the assay with 4H683-bA; 0.00973 in the assay with 4H850-bH; -0.25 in the assay with 4H906-bH.

B3: 4H3631-bH (peptide)
chain: DKNQELKKEIEELERKIWELKKKNQELER
In the case of B3, the interaction score in the assay with 4H3631-bH was 1.13; in the assay with 4H3638-bH it was 0.578; with 4H3817-bH, 0.637; with 4H3974-bH it was 0.292; with 4H570-bH, -1.5; with 4H584-bH it was -0.0526. The interaction score was 0.647 with 4H619-bH, -1.94 in the assay with 4H850-bH, -1.74 in the assay with 4H906-bH and 0.206 with 4H953-bH.

B4: 4H3189-bH (peptide)
chain: DKNQELEKEIEELKRKNWELEKKIQELER
Turning to B4, the interaction score with 4H3189-bH is 0.907; with 4H331-bH it was -0.227; with 4H3606-bH, -0.801; with 4H370-bH it was -0.165; with 4H3782-bH, -0.496; with 4H3843-bH, -0.157. For the same molecule, the interaction score was -0.0803 with 4H4001-bH; -0.167 in the assay with 4H462-bH; -0.408 with 4H568-bH; -2.19 in the assay with 4H607-bH; -0.776 with 4H687-bH; -0.107 with 4H72-bH. Moreover, the interaction score was -0.148 with 4H797-bH, -0.365 with 4H883-bH, -0.173 with 4H918-bH and 0.375 with 4H953-bH.

B5: P5mS (peptide)
chain: ENSQLEEKISQLKQKNSQLKEEIQQLEYG
For the molecule B5, the interaction score is -3.02 with P5mS; 0.104 in the assay with P6SC1; 0.207 with P6SC2; 0.124 with P6; -0.205 with P6mS; -2.73 in the assay with P7. Also, the interaction score was -2.67 with P7mS, -2.02 with P8, -2.74 with P8mS and -2.67 with P9.
